Assay results: the supplement of paper PMC9170038

System: MS2 coat protein
Test: apparent KD of MS2 coat protein; designed switch direction (-1 OFF switch, 1 ON switch): 1; higher = weaker reporter binding
Summary of the method: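 Designed RNA switches were transcribed on Illumina chips by stalled E. coli RNA polymerase and titrated with SNAP-549-labelled MS2 coat protein from 0.7 or 1.5 nM, doubling to 3 µM. Step length ran from 0.8–1.5 h at the lowest concentration to 10–20 min at the highest. The apparent KD is the median over clusters for each design, from curve-fitted normalised cluster fluorescence.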

[1] = input ligand: microRNA oligo, concentration not stated
[2] = Eterna round: R95, input ligand: FMN 200 uM
[3] = Eterna round: R95, input ligand: microRNA oligo, concentration not stated
[4] = Eterna round: R95, input ligand: none

| Sequence | apparent KD of MS2 coat protein (input ligand: FMN 200 uM) [nM] | apparent KD of MS2 coat protein [1] [nM] | apparent KD of MS2 coat protein (input ligand: none) [nM] | apparent KD of MS2 coat protein [2] [nM] | apparent KD of MS2 coat protein [3] [nM] | apparent KD of MS2 coat protein [4] [nM] |
| --- | --- | --- | --- | --- | --- | --- |
| ACAAUCUGGGUAGGAUAUCUAGGAUAUGGGAAAGACUAAGUCUGUAGGUCACCUAACCCAGAUGGAGAGAAGGACCCAACACAC [pwkr ssNG2 2FMN + F9.43] (Eterna round: R96, puzzle: Same State NG 2) | 95.8 | 3.94 | 202 |  |  |  |
| UGUUAGUAGACAGGAUAUUGAAUGUUAAGUAUUAACAUGAGGAUCACCCAUGUAUUUGAUUGGUACAAGAAGGGUCAUGUUUGU [JR_SSNG2_Sub014] (Eterna round: R96, puzzle: Same State NG 2) |  | 290 |  |  |  |  |
| AGUCCAGCCUGAGCUGGACAAAAGCAUGUACAUGAGGAUCACCCAUGUUCAUGUACAAGCUUUUUGCUCGUCUUAGA [salish99_208a_r3_059] (puzzle: Sensor for hsa-mir-208a) |  |  |  | 709 | 15.4 | 732 |
| UUAAUUAAUUAAUUAUACAUGAGGAUCACCCAUGUAAGUGAUCAGGAUAUCAGCUCGAUUAGAGCUGAGAAGGGAUCCAUGUAA [SSNG3/14-A2] (Eterna round: R96, puzzle: Same State NG 3) |  | 78 |  |  |  |  |
| UCUCGGGUCGUAGGAUAUGUAGGAUAUGUACAUGAGGAUCACCCAUGUCUACCAGAGACAGAAGGACAGAAGGACGAGCCACUC [pwkr ssNG2 2FMN 1F5s.5] (Eterna round: R96, puzzle: Same State NG 2) | 25.2 | 42.2 | 55.5 |  |  |  |
| GUAAAACAUGAGGAUCACCCAUGUCAACAAAGUCGAGGAUAUGGGCAUAUAUUAUAUGAACCAGAAGGCGAAUAUG [Mat - Same State 1 - Mod of UCT - D27] (puzzle: Same State 1) |  |  |  | 14.6 | 43.1 | 33.9 |
| AUAUGAGGAGCAGGAUAUGCGAAGAAGAAAGAAGCAGAAGGGCUCAUGGGACGACAUGAGGAUCACCCAUGUACUUCGCGAUGA [AK SSNG1-V2-6] (Eterna round: R96, puzzle: Same State NG 1) | 133 | 278 | 538 |  |  |  |
| AGUCCAGCCUGAGCUGGACAAAAGCAUGUACAUGAGGAUCACCCAUGUUCAUGUACAAGCUUUUUGCUCGUAUUAAA [Mat - hsa-mir-208a - Mod of JL - 52] (puzzle: Sensor for hsa-mir-208a) |  |  |  | 555 | 14.8 | 566 |
| AGUAGUGUAACAUGAGGAUCACCCAUGUAUGUAUAUGUAACCUAGGAUAUGGAGGUUAUGUUUGACCAGAAGGAGGAUUGUUUA [JR_SSNG3_Sub042] (Eterna round: R96, puzzle: Same State NG 3) | 29.7 | 28.7 | 33.7 |  |  |  |
| GCUGGAACUCACAUGAGGAUCACCCAUGUUCCGGAAACGGCACAGGAUAUCUGUCCGAAAAGGUCAGAGAAGGGUGGAACCAGC [Fiskers NG3ss - 88] (Eterna round: R96, puzzle: Same State NG 3) | 189 | 43.5 | 90.4 |  |  |  |
| AUACAUGAGGAUCACCCAUGUAAUUAAUUAAUUAAUAAGAUCUAGGAUAUCAGCUCGAUUAGAGCUGAGAAGGAGAUCACAUGU [SSNG3/21-B2] (Eterna round: R96, puzzle: Same State NG 3) |  | 16.8 |  |  |  |  |
| GAGUGGAGGAAAGGAUAUACAAUGAUAAUCACAGUAGAAGGUUCUAACAUGAGGAUCACCCAUGUAGGACUAUACCUGAGAGAA [Parity 47 - Jieux - Same State NG 1] (Eterna round: R96, puzzle: Same State NG 1) | 9.26 | 10.8 | 15.5 |  |  |  |
| CCUUAGUACAAUUUAGAUCUACAUGAGGAUCACCCAUGUACUGAGGAUAUCAGCUCGAUUAGAGCUGAGAAGGCAGAAGUACUU [SSNG3/7-A2] (Eterna round: R96, puzzle: Same State NG 3) | 90.9 | 122 | 144 |  |  |  |
| ACAUGAGAGAAAGGAUAUCUUGUACCUACAUGUGACAUGAGGAUCACCCAUGUGGUAAGUAUGAGAGAGAAGGUUCAGAUAUGU [Equivalence 33 - Jieux - Same State NG 2] (Eterna round: R96, puzzle: Same State NG 2) | 15.9 | 25.8 | 29.8 |  |  |  |
| AAGUAGGAGUUACAGGAUAUAUGGAGAAGGACAUGAGGAUCACCCAUGUGAGAGAUGAGAGGAAGAUAGAAGGGUAAGGGAGUAA [JR_SS2_Sub026] (puzzle: Same State 2) |  |  |  | 44 | 41.4 | 77.2 |
| GGAAAGAGGUUAGGAUAUGCAUGUCUGGGACAUGAGGAUCACCCAUGUAAUAGAAGAAAUCUACAGUAGAAGGGACAAGGAAGG [AK SSNG2-V2-7] (Eterna round: R96, puzzle: Same State NG 2) | 89.9 | 62.7 | 75.2 |  |  |  |

| Sequence | apparent KD of MS2 coat protein (input ligand: FMN 200 uM) [nM] | apparent KD of MS2 coat protein [1] [nM] | apparent KD of MS2 coat protein (input ligand: none) [nM] | apparent KD of MS2 coat protein [2] [nM] | apparent KD of MS2 coat protein [3] [nM] | apparent KD of MS2 coat protein [4] [nM] |
| --- | --- | --- | --- | --- | --- | --- |
| ACGCUAGUCACAGGAUAUCCGAAAUAUAGCAAAGGAGAAGGGUGAUUAACAUGAGGAUCACCCAUGUAAAAGAAGAAAGAAGAU [Edargebi] (Eterna round: R96, puzzle: Same State NG 1) | 173 | 167 | 186 |  |  |  |
| GUUACAUGAGGAUCACCCAUGUAUGUGUGGGAGUAAGUGUCUUAGGAUAUCUGUUUUUUAAUUUAAGAGAAGGAAGAUUGUUGU [JMF's solution 33] (Eterna round: R96, puzzle: Same State NG 3) | 105 | 59.6 | 112 |  |  |  |
| GUACAAAUCAUAGGAUAUGGGCGGGAAUGCCGUCCAGAAGGAUGAACAUGAGGAUCACCCAUGUCCGGCCGCAAAUACGCGGCC [Xexeti] (Eterna round: R96, puzzle: Same State NG 1) | 62.6 | 140 | 209 |  |  |  |
| UUGCUCGGGUGAGGAUAUGCCGCCGUUUCGGCUGCAGAAGGUGCUACGUUACAUGAGGAUCACCCAUGUCUCUGUUGUUUCGUC [salish99_SSNG1_r04_968] (Eterna round: R96, puzzle: Same State NG 1) | 65.1 | 28.1 | 52.3 |  |  |  |
| GUGGUCAGACAUGAGGAUCACCCAUGUGGAAUAAAUAACGUACAGGAUAUGCAAUAUAGGAUAUAGUAGAAGGGUAGAUUGGUG (Eterna round: R96, puzzle: Same State NG 3) | 116 | 95 | 123 |  |  |  |
| GAGAGAGGGUGAGGAUAUUUAGUGAUAAUGAUAAGAGAAGGCACAGACAUGAGGAUCACCCAUGUGGGAAUAAUCCAGAGAGAG [Parity 8 - Jieux - Same State NG 1] (Eterna round: R96, puzzle: Same State NG 1) |  | 167 |  |  |  |  |
| GGCAUACAUGAGGAUCACCCAUGUUCAACCUAGAUAGGAUAUGGGCCUCUUGUAUUAGGCCCAGAAGGAUCUGUAA [Regea] (puzzle: Same State 1) |  |  |  |  | 86.4 |  |
| CGUCCAGCCUGAGCUGGACAAAAGCAUGUACAUGAGGAUCACCCAUGUUCAUGUACAAGCUUUUUGCUCGUCUUAUA [salish99_208a_r3_046] (puzzle: Sensor for hsa-mir-208a) |  |  |  | 585 | 13.9 | 479 |
| GCUCGCGGCACAGGAUAUGGGUGCCUGUACAUGAGGAUCACCCAUGUUAAGGGACGGAUUACGAACCAGAAGGGUGAGGCGGGC [Axearisar] (Eterna round: R96, puzzle: Same State NG 2) | 63.8 | 120 | 768 |  |  |  |
| UGUCCAGCCUGUGCUGGUCUUUUGCAUGUACAUGAGGAUCACCCAUGUCGUGUACAUGCUUUUUGCUCGUCUUUAAA [Photon Torp-04] (puzzle: Sensor for hsa-mir-208a) |  |  |  | 181 | 25.4 | 317 |
| GGAGGACAUGAGGAUCACCCAUGUAGAUGGGCGCUAGGAUAUGCGAGAGGGUAGAGAGAAGCAGAAGGAGUGGAUU [JR_SS1_Sub041] (puzzle: Same State 1) |  |  |  | 156 | 259 | 214 |
| GAUAAACAUGAGGAUCACCCAUGUAAUAAUAUGGGAGGAUAUCAGAAUGUAUGUAUGUAAUGAGAAGGCCUAAUAU [Mat - Same State 1 - Mod of Eli - D71] (puzzle: Same State 1) |  |  |  | 61.8 | 545 | 491 |
| GGAAGGAAGUCAGGAUAUGAAUGGAAAGUACAUGAGGAUCACCCAUGUUAUGGAGGAAGGAAACGUUAGAAGGGAUAAGGAAGG [AK SSNG2-V2-1.1] (Eterna round: R96, puzzle: Same State NG 2) | 67.8 | 45.2 | 63.7 |  |  |  |
| AGAUGUUAAUCAGGAUAUGGGCACAUGAGGAUCACCCAUGUAAAUUCGAUACUAUGUGGAGACGUCUAGAAGGGAUGGCUAACA [SameState NG2 #84] (Eterna round: R96, puzzle: Same State NG 2) | 127 | 82.2 | 137 |  |  |  |
| GGAUGAUAGACAGGAUAUUGAAUGUAAUUAGGACAAGAAGGGUCAAUGAUUUAAACGACCAGUUACAUGAGGAUCACCCAUGUU [JR_SSNG1_Sub025] (Eterna round: R96, puzzle: Same State NG 1) | 44.9 | 38.1 | 49.1 |  |  |  |
